Sequences and labels used below:
B1: OR4K15 (parent)
chain: GUUAACGGUCAUAGGCCAUGGAAACUAGGAGCACCAUUUCGCUGCCAGUGAAGAAAUGAACAAAGAAAAUCUGGGCCAGGCAGGCAUCAAAAGAAAUAGUCUUGCGCUCAACCAGAAAGUCUGUAAUCAUUUUAAGGGUA

This data set covers variants of B1. Briefly: self-cleavage, relative activity (ratio to wild type); higher = more cleavage; in vitro, sequencing; the parent is a self-cleaving ribozyme.
Turning to A78G U127G, the self-cleavage came to 0.27.
In the case of G80A A90G, the self-cleavage worked out at 0.18.
Turning to A82G G106A, the self-cleavage is 0.01.
Turning to A82G G106C, the self-cleavage came to 0.01.
The value for C81U U103A was 0.1; that for G79A A140G was 0.13.
Next, A78G U87C: 0.05; A78G U87A: 0.08; G79A A94U: 0.15.
Next, C76U A96C: 0.1; A82C A89G: 0.16; G75A G138A: 0.13.
For A82C A91U, the self-cleavage amounted to 0.3.
The value for A82C C109U was 0.07; that for A82G U124A was 0.32.
The value for G75C U103G was 0.02.
Next, G75C U103C: 0.12; A78U A89U: 0.35; A82G C113U: 0.05.
Take A78U U108A: the self-cleavage is 0.01.
Next, A78U U108G: 0.01; A78C A82G: 0.11; C77U U102A: 1.57.
Take G75A U103C: the self-cleavage is 0.06.
Next, G79U G99A: 0.03; A82G U132A: 0.91.
Next, G75A A82G: 0.12; A82U U131C: 0.24; A82U U131A: 0.07.
The value for G80A A86U was 0.24; that for A82G A134G was 0.54.
On to A78C A91C, for which the self-cleavage is 0.19.
In the case of A78U A134G, the self-cleavage stood at 0.31.
The value for A78G A126C was 0.09.
Take G75C U97C: the self-cleavage came out at 0.12.
Next, A82U C105U: 0.01.
The value for A82U A116G was 0.09; that for G84A U102A was 2.02.
Consider G84A U102G, for which the self-cleavage was 1.29.
Next, C77U U130C: 1.61; G83A U120C: 1.74.
On to A78C U132C, for which the self-cleavage was determined as 0.33.
Next, C81U A96G: 0.43.
Next, C76A A96G: 0.19; G79A U127C: 0.06; G75A U120C: 0.02.
Next, A82U A140G: 0.23.
As to A78U A126G, the self-cleavage came out at 0.17.
The value for A78C A116G was 0.13; that for A78G A98G was 0.08; that for A78G A98C was 0.27.
Consider A78G A98U, for which the self-cleavage came to 0.39.
Take G75A A116U: the self-cleavage was found to be 0.05.
Regarding A82G A92G, the self-cleavage was 0.67.
The value for A82G A92C was 0.78.
The value for G79A U132C was 0.1; that for G83A A89U was 1.82; that for G83A A117U was 1.21.
The value for A78U U130C was 0.2.
Consider G75C, for which the self-cleavage worked out at 0.17.
The value for G75U was 0.12; that for G83U U108C was 0.02; that for A78G U108C was 0.01.
The value for A78G U108A was 0.03; that for A82U A86G was 0.12; that for A82U A86U was 0.32.
Next, A78G A114G: 0.05.
For C81U A111U, the self-cleavage was found to be 0.05.
Next, G75A C105U: 0.01; G80A A116G: 0.03; A78G C81U: 0.14.
The value for A78G C81A was 0.1; that for G84A A92U was 2.15.
For A78U U139A, the self-cleavage amounted to 0.5.
Next, A78U U139C: 0.28.
Turning to A78C U131C, the self-cleavage was determined as 0.17.
The value for A78U A114C was 0.05; that for A78U U127A was 0.8.
The value for C76G A96U was 0.09.
As for G75A U108C, the self-cleavage is 0.03.
Next, A82C U131A: 0.14; G83A U87C: 1.21; A82U U87C: 0.22.
In the case of A82G A89G, the self-cleavage worked out at 0.45.
The value for A82G A89U was 0.51; that for C77U U100C was 2.13; that for A82G U103C was 2.05.
The value for A78U A110G was 0.05.
Next, A78U A110C: 0.05; G84U A110U: 0.44.
In the case of C76U A78C, the self-cleavage is 0.11.
Next, A82C A117G: 0.15.
With A82G U100A, the self-cleavage was found to be 0.25.
The value for A78U U103C was 0.06; that for G75C A117G was 0.15.
The value for A78U A117U was 0.3; that for A78U A117G was 0.36; that for G79C A91G was 0.09.
Next, A78U U131C: 0.17.
For A78U A98G, the self-cleavage was found to be 0.06.
Next, A82U A129G: 0.08.
The value for A82U A92G was 0.22; that for C76A U120A was 0.19.
Next, G75U A126G: 0.08.
On to A82G U133C, for which the self-cleavage was 0.72.
The value for C81A U103C was 0.13.
Next, G79A U108A: 0.02; G75U C85U: 0.21; G75C A126G: 0.12.
The value for G75C A126C was 0.09; that for A78G A135G was 0.19; that for G75C A98G was 0.07.
As to C76U U108A, the self-cleavage is 0.01.
Take A78U A111G: the self-cleavage was 0.02.
Next, A82U C101U: 0.04; G79U U102C: 0.06.
Next, A82U A95C: 0.12; A82U A95G: 0.51; A78G G106A: 0.03.
The value for A78U A91U was 0.8; that for A78C U87C was 0.27; that for G80A U132C was 0.08.
Take A82G G136A: the self-cleavage is 0.9.
Next, G75A A91G: 0.14; C76U U87C: 0.17; G84C U100C: 0.27.
The value for G79U A96U was 0.13.
The value for G84A A96G was 2.43; that for G84A A96U was 2.46.
G83U U127C: the self-cleavage was 0.29.
The value for C77U A114U was 0.14; that for A82U U97A was 0.34; that for A82U U97C was 0.06.
The value for C77U A98G was 0.88.
As to A78G A91U, the self-cleavage turned out to be 0.22.
Consider A78G A91G, for which the self-cleavage turned out to be 0.13.
On to G83A U102C, for which the self-cleavage amounted to 0.44.
The value for A78C G106A was 0.03; that for G75C A110G was 0.02.
Next, C76U C105U: 0.03; C81A A86G: 0.16; A78G G80A: 0.13.
Next, A82G A91U: 0.59.
As for G83A U122C, the self-cleavage came to 1.87.
The value for A82U A135G was 0.22; that for A82U A135U was 0.12; that for G79A was 0.14.
Next, G79C: 0.08; G79U: 0.06; C76U A118G: 0.1.
Next, A82U A94U: 0.21.
A82U A94C: the self-cleavage came to 0.06.
The value for A78G A118G was 0.29; that for A78G A89G was 0.18; that for A82G A126C was 0.41.
Next, A78G A96U: 0.4; G75C A129G: 0.07.
With C77A A89G, the self-cleavage was 0.61.
Next, G79A A110U: 0.24; A82G A110G: 0.07.
With A78U G93U, the self-cleavage is 0.53.
The value for G79U U87C was 0.11; that for C77U A89G was 2.1; that for C81U A134G was 0.53.
In the case of G83U C88U, the self-cleavage turned out to be 1.11.
Next, C77A A96G: 1; G80A A135G: 0.31.

For the origin of these results see the RNAGym collection of RNA variant scans (doi:10.7554/elife.90254).
